Here are results for two proteins from US20200377604.

Series [1] can be described thus: gel filtration of the Fc, mAU at 280 nm against time; low, broad peak at 19.477 min. On the technique in general: SEC sorts molecules by how far they enter the pores of the column.
Series [2] can be described thus: gel filtration of the Fc, mAU at 280 nm against time; low, broad peak at 19.455 min.

B1: knob Fc F241S/F243R (protein)
chain: DKTHTSPPSPAPELLGGPSVSLRPPKPKDTLMISRTPEVTCVVVDVSHEDPEVKFNWYVDGVEVHNAKTKPREEQYNSTYRVVSVLTVLHQDWLNGKEYKCKVSNKALPAPIEKTISKAKGQPREPQVYTLPPSREEMTKNQVSLWCLVKGFYPSDIAVEWESNGQPENNYKTTPPVLDSDGSFFLYSKLTVDKSRWQQGNVFSCSVMHEALHNHYTQKSLSLSPGK
With B1, the “Area of the small peak ahead of the monomer peak (dimer position; not labelled Dimer on the sheet)” value in series [1] is listed as “Area: 1943.99”.

B2: knob Fc F241R/F243S (protein)
chain: DKTHTSPPSPAPELLGGPSVRLSPPKPKDTLMISRTPEVTCVVVDVSHEDPEVKFNWYVDGVEVHNAKTKPREEQYNSTYRVVSVLTVLHQDWLNGKEYKCKVSNKALPAPIEKTISKAKGQPREPQVYTLPPSREEMTKNQVSLWCLVKGFYPSDIAVEWESNGQPENNYKTTPPVLDSDGSFFLYSKLTVDKSRWQQGNVFSCSVMHEALHNHYTQKSLSLSPGK
Turning to B2, the “Area of the small peak ahead of the monomer peak (dimer position; not labelled Dimer on the sheet)” value in series [2] is listed as “Area: 3287.62”.
